Test results published in the supplement of paper PMC9170038.

Tested on: MS2 coat protein
Experiment: apparent KD of MS2 coat protein; higher = weaker reporter binding
Conditions: Eterna round: R107
Description: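 RNA-MaP round R107: designed RNA switches with theophylline, tryptophan, arginine or FMN aptamers are transcribed on-chip within common flanks. They are titrated with SNAP-549-labelled MS2 coat protein in RNA-MaP buffer (100 mM Tris pH 7.5, 80 mM KCl, 4 mM MgCl2), without ligand or with the indicated ligand. Median apparent KD per design.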

[1] = input ligand: theophylline 20 uM
[2] = input ligand: theophylline 2 mM
[3] = input ligand: tryptophan 2.4 mM

Sequence	apparent KD of MS2 coat protein (input ligand: arginine 13.2 mM) [nM]	apparent KD of MS2 coat protein [1] [nM]	apparent KD of MS2 coat protein [2] [nM]	apparent KD of MS2 coat protein (input ligand: none) [nM]	apparent KD of MS2 coat protein [3] [nM]
AACAUGAGGAUCACCCAUGUCCUCAUGAUUCGAGGACCGGUACGGCCGCCACUCGGUCCUCGCGAGGAGGAGUCAAAGACUCCAA [Omei Trp A SS A v2]	360	361	968		
AACAUGAGGAUCACCCAUGUCCUCGUGUUCCGAGGACCGGUACGGCCGCCACUCGGUCCUCGCGAGGAUGGUCAAAGACUAUCCA [Omei Trp A SS B v3]	724	378	953		
AACAUGAGGAUCACCCAUGUCUGAACUGAAGGAGCGCUAAAUAAGGCAGGUAGGUCGCGGAAUUUUGUGUACAUAUGUAUAUGGG [9.H]	21.7	32.2	35.8	25.9	23.8
AACAUGAGGAUCACCCAUGUGUCCUCGAAACGAGGACCGGUACGGCCGCCACUCGACGUAUGUUGACGAAAAGUCAGCAUACGAA [Mat - Exclusion - Trytophan A - D12]	112	310	330		
AACAUGAGGAUCACCCAUGUGUCCUCGAAACGAGGACCGGUACGGCCGCCACUCGGCGUAUGUUGACGAAAAGUCAGCAUACGCA [Mat - Exclusion - Trytophan A - D11]	81.8	209	255		
AACCGAGGCUAUCCUCUCCGACUAUGUGAUACCAGAAUAAUUUUAUUCCCUUGGCAGCAUGACAUGAGGAUCACCCAUGUCUCUU [SSTheo A #10]	16	18			15.9
AAGCUGGGUGUAAAAUAAAUAAUCACUGAUACCAGACUAUGAGAUGUCCCUUGGCAGCAGAAACAUGAGGAUCACCCAUGUAAUA [JR_Nu_ExcTheophyA_Sub027]	21.4	25.5			27.1
AAGGGAGAAUCAGAUACCAGAGUAAGAUGGCAUGAUAAUUACAUGAGGAUCACCCAUGUACUCCCUUGGCAGCUGACAAUAUAUU [Exclusion Theophylline B GF 18]	12.5	13.2			10.3
AAGGUGAUCCCAGAUACCAGCUUAACAUGAGGAUCACCCAUGUAUGGGACGAAAGUCCCGGGCCCUUGGCAGCUGGGUUGCCAAG [SSTheo B #16]	43.6	427	64.9	224	170
AAGGUGAUCCGUGAUACCAGCUCAACAUGAGGAUCACCCAUGUAACGGACGAAAGUCCGGAGCCCUUGGCAGCACGGUAAUAAUA [(M)'-(Theo1)-(Ms2)-(Theo2)-(M'')_Design2b]	10.4	15.1			11.6
AAGGUGAUCCGUGAUACCAGCUCAACAUGAGGAUCACCCAUGUACGGGACGAAAGUCCCGGGCCCUUGGCAGCACGGUUGCCAAG [SSTheo B #20]	53.2	239	93.7	89.8	109
AAGUCAGGAGGCGAUACCAGUUACGACAUGGCCAGUUACAUGAGGAUCACCCAUGUGCGGAACCCUUGGCAGCGCUUACAUCGCU [theeternabot_exclusion_MS2_Theo_B_1]	22.5	47			24.4
AAUAAUAAGAAUAACGUACCAGGUGAUCAACGAGGACCGGUACGGCCGCCACUCGAAACAUGAGGAUCACCCAUGUAAUAACAAU [|T'-M'-Trp-Ms2|_Design 2_OL]	39.7	107	124		
AAUAUAUAGACGGCCGCCACUGGAACCAAUACAUGAGGAUCACCCAUGUGAAAAGGAUAGGUUCACAGGACCGGGUCUUCAUGUA [SS Tryp B Tesla 1.3]	40.5	33.1	61		
AAUCAUGAAAACAUGACAUGAGGAUCACUCCGAGGACCGGUACGGCCGCCACUCGCGAGGAGGCGGACAUGAGGAUCACCCAUGU [#02 Tryptophan A Same State]	49.2	265	421		
AAUCAUGGAAACAUGACAUGAGGAUUACUCCGAGGACCGGUACGGCCGCCACUCGCGAGGAGGCGGACAUGAGGAUCACCCAUGU [#03 Tryptophan A Same State]	55.8	208	189		
AAUUCCUCACAUGAGGAUCACCCAUGUGAAGGAGCGCCGAAUAAGGCAGGUAGGUCGCACAUGGAAACCGCUACGAAAGUAGUAA [XArg-A 2 NuV2]	18.7	25.3	22.1	19.9	19.2

Sequence	apparent KD of MS2 coat protein (input ligand: arginine 13.2 mM) [nM]	apparent KD of MS2 coat protein [1] [nM]	apparent KD of MS2 coat protein [2] [nM]	apparent KD of MS2 coat protein (input ligand: none) [nM]	apparent KD of MS2 coat protein [3] [nM]
AAUUGAAACAGAGGUAUAUACGGACAUUACCGAGGACCGGUACGGCCGCCACUCGACCUAAAACAUGAGGAUCACCCAUGUAGCA [theeternabot_exclusion_MS2_Trp_A_20]	12.6	14.2	13.8		
AAUUUGUCGGGUGAUACCAGCCUCGGCGCGUCUCGCGCUGAACAUGAGGAUCACCCAUGUGGCCCUUGGCAGCACAUGACAAAUC [Raracere]	367	557			677
AAUUUUAACGGAAGGAGCGUCAAUUAAUACAAACAUGAGGAUCACCCAUGUCAAUACAUGAGACAGGUAGGUCGCCGUUAUUUGA [JR_AAArginiB_Sub024]	23.9	28	21.7	22.1	23.3
ACACAAUACAUGAGGAUCACCCAUGUAAAACGAGGACCGGUACGGCCGCCACUCGAAUACUGUAAUCCUCGGAAUAUUAAGUGAA [JR_ExcTryptA_Sub002]	28.7	57.1	61.6		
ACACAUGAGGAUCACCCAUGUGCCCAUGAAGGAGCGUGGGAAACCACAGGUAGGUCGCAUGACAUGAGGAUCACCCAUGUUUAUU [Astarte]	29	44.9	39.7	41.9	41.9
ACAUCUUGUACGGCCGCCACUAACAGAUUCAGCGUCGGAGCCAACUACAUGAGGAUCACCCAUGUUAGGACCGGGUACUGUCCAC [theeternabot_exclusion_MS2_Trp_B_47]	15.8	20.7	21		
ACAUGACAACAUGAGGAUCACCCAUGUCAUCGAGGACCGGUACGGCCGCCACUCGGUCAAUAUGAUACUUGUCAUGAACAUGAGG [Exclusion Tryptophan A 2]	19	25.7	21.3		
ACAUGAGGACCGGAUACCAGCCACACAACAUGAGGAUCACCCAUGUCCCAUGUAUGAGGAGGCCCUUGGCAGCCGACAUACAUGA [Exclusion - Theophylline B #1]	48.2	157	398	77.3	78.1
ACAUGAGGAUCACCCAUGUAAUAGCGAGAAGGAGCGCGUAAGGACGCAGGUAGGUCGCUCGUGGUCCGGCCGCAAGGCCGGACCA [#1 Same State - Arginine A Attempt #10 (HarryS)]	11.1	18.6	12	9.24	13.2
ACAUGAGGAUCACCCAUGUACAUCACCCGACGAGGACCGGUACGGCCGCCACUCGGGUAUAUAUAUACAUCGGGUGAUUUUGCAU [#21 Tryptophan A Same State]	27.4	108	79.5	20.9	26.5
ACAUGAGGAUCACCCAUGUACAUGAGGGAAGGAGCGGUACAUGUGCCAGGUAGGUCGCCCAACAGCAUCAGCCAUGUACAACGGA [xxbmullin]	29	87.4	69.5	56.8	52.3
ACAUGAGGAUCACCCAUGUAUUGAGCCGAAGGAGCGGCAGGUAUGCCAGGUAGGUCGCGGUUAGAGUAGAUUGAUGUUCUUUUGU [Exclusion - Arginine A / B]	12.3	14.8	16.3	12.7	12.4
ACAUGAGGAUCACCCAUGUCACGGCACGAUACCAGCUGAUCCGGUGGCCCUUGGCAGCGUGACGUUUGGUCCCGCGGAUCACACG [semullin]	40	101			66.9
ACAUGAGGAUCACCCAUGUGAAGGCACGAUACCAGCUGAUCCCGUGGCCCUUGGCAGCGUCCGGUGUGGUCCGGCGGAUGGGACG [xwxmullin]	19.1	23.3	30.9	25	26.4
ACAUGAGGAUCACCCAUGUGCCGUCUUGAUACCAGACCCGAAGUAGUCCCUUGGCAGCAACUACGUGACGGUCGCGCAUGUGUAG [kaomullin]	16.3	30.3			17.7
ACAUGAGGAUCACCCAUGUUAAACACAGAAGGAGCGUGAAGGAACACAGGUAGGUCGCUGUACUUAUUGAGUAUUCACUCGAUAC [JR_Nu_SSArginiA_Sub028]	14.9	16.5	12.8	12.5	13.3
ACCAGGGUCUGAAGGAGCGCGAUUACAUGAGGAUCACCCAUGUGAAAUGGUAGAUGAUACUCGCAGGUAGGUCGCAGUACUUGGA [Same State Arginine B GF 14]	53.3	164	234	107	215
